Assay results: patent US20050181476A1 (VLAAMS INTERUNIVERSITAIR INSTITUUT VOOR BIOTECHNOLOGIE VZW, published 2005)

Biological target: T1, IRAK-4 (UniProt Q9NWZ3 1-460)
T1 construct: also called Gal4AD-IRAK4 (in yeast); not shown: N-terminal Flag or VSV tag (pCRIII) in HEK293T co-immunoprecipitation
T1 sequence (looked up): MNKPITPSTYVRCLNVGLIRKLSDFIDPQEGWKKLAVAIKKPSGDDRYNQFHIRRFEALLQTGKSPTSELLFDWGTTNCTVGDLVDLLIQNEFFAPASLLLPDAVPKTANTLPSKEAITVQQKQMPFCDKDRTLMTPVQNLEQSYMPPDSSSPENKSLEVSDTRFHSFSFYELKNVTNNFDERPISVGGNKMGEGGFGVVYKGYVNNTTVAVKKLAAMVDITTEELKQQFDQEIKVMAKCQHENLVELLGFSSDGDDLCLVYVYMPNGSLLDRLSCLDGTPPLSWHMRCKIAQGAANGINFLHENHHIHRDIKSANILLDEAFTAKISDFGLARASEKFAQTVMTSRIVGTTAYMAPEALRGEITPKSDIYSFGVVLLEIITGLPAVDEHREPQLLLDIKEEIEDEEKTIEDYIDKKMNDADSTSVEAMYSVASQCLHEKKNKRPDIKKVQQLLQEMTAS
Experiment: co-immunoprecipitation from transfected HEK293T cells
Experimental: To test this, IRAK-1KD and IRAK-4 interactions were analyzed in the presence or absence of MyD88 and/or MyD88S. […] However, addition of MyD88 but not MyD88S permitted assembly of a complex containing both IRAKs. MyD88 thereby appears to act like a hinge inducing the proximity of IRAK-1 and IRAK-4.
2×10⁶ HEK293T cells were plated on 10-cm petri dishes and transiently transfected with 1 μg of the indicated expression plasmids. The total amount of DNA was kept at 5 μg per petri dish by adding empty vector. Twenty-four hours post-transfection, cells were washed with PBS, and lysed in 500 μl lysis buffer (50 mM HEPES pH7.6, 250 mM NaCl, 0.1% NP-40, 5 mM EDTA, supplemented with protease and phosphatase inhibitors). Lysates were incubated for 16 hours with 5 μg anti-Flag (Sigma). Immunocomplexes were immobilized on protein A-Trisacryl beads (Pierce Chemical Co., Rockford, USA). The beads were washed twice with lysis buffer and twice with lysis buffer containing 1 M NaCl. Bound proteins were eluted by boiling in Laemli buffer and analyzed by 10% SDS-PAGE and Western blotting. Western blots were blocked with 5% milk and incubated overnight with primary antibodies. Antibodies raised against the C-terminal part of MyD88 were purchased from Immucor (Roedermark, Germany). […]

B1: E-MyD88S (other)
chain: MSAGDPRVGSGSLDSFMFSIPLVALNVGVRRRLSLFLNPRTPVAADWTLLPEEMGFEYLEIRELETRPDPTRSLLDAWQGRSGASVGRLLELLALLDREDILKELKSRIGQTPELFDAFICYCPNDIEFVQEMIRQLEQTDYRLKLCVSDRDVLPGTCVWSIASELIEKRCRRMVVVVSDDYLQSKECDFQTKFALSLSPGVQQKRLIPIKYKAMKKDFPSILRFITICDYTNPCTKSWFWTRLAKALSLP
notes: Expressed in HEK293T cells; also called pCAGGS-E-MyD88S; splice variant of MyD88 lacking the intermediate domain (ID); not shown: N-terminal E-tag
Does B1 bind?
Result: no binding
